Results from patent publication US20230242646A1 (JJP BIOLOGICS SP Z O O, published 2023).
Positions count from the first letter of the chain named.

How the values were obtained:
[1] = molecular target: T1, membrane-bound full-length human CD89 on HEK293F cells (human, UniProt P24071 22-287); assay: FACS, antibody before serum IgA on HEK293F-huCD89; IgA detected
T1 construct: 2 or transient transfectants; also called membrane human CD89; human FcaRI
Protocol: Then, 10 µL/tube (i.e., 0.1 x 10⁶ cells) of these cells were incubated with 50 µL titrated (in PBS/BSA/NaN₃) purified mouse anti-human CD89 antibody/tube for 30 minutes at 4° C. […] After extensive washing in PBS/BSA/NaN₃, 1:200 diluted PE-conjugated streptavidin (Jackson ImmunoResearch) was added, and incubated for 30 minutes at 4° C. After extensive washing in PBS/BSA/NaN₃, cells were fixed in 2% formaldehyde in PBS/BSA/NaN₃ for 30 minutes at 4° C.

[2] = molecular target: T1, membrane-bound full-length human CD89 …; assay: FACS HEK293F-huCD89, 10 ug/mL; competitor PE-MIP8a
Protocol: (§1) Then, 10 µL/tube (i.e., 0.1 × 10⁶ cells) of these cells were incubated with or without 100 µL purified mouse anti-human CD89 antibody at 10 µg/mL (in PBS/BSA/NaN₃) for 30 minutes at 4° C. […] After extensive washing in PBS/BSA/NaN₃, cells were fixed in 2% formaldehyde in PBS/BSA/NaN₃ for 30 minutes at 4° C.

[3] = molecular target: T2, membrane full-length cynomolgus monkey CD89 on HEK293F cells (cynomolgus monkey); assay: FACS, transiently transfected HEK293F
T2 construct: also called cynoCD89; cynomolgus EC1-CD89
T2 chain: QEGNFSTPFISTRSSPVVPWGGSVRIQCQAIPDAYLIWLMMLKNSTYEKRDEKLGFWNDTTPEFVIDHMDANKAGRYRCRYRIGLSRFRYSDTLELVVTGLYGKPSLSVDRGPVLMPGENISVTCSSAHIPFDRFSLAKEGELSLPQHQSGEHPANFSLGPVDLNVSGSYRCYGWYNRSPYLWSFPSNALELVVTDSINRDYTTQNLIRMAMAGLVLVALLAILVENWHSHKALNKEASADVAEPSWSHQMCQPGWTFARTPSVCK
Protocol: To this end, transient transfected HEK293F cells were put at 10 x 10⁶ cells/mL in ice-chilled phosphate-buffered saline containing 0.1% BSA (Sigma)/0.05% NaN₃ (PBS/BSA/NaN₃) supplemented with 50 µg/mL human IgGs (blocking FcY receptors; Sigma) for 10 minutes at 4° C. Then, 10 µL/tube (i.e., 0.1 × 10⁶ cells) of these cells were incubated with or without 100 µL purified mouse anti-human CD89 antibody at 10 µg/mL (in PBS/BSA/NaN₃) for 30 minutes at 4° C. […] After extensive washing in PBS/BSA/NaN₃, cells were subsequently incubated with 1:200 diluted PE-conjugated goat anti-mouse IgG Fcy-specific antibodies (Jackson ImmunoResearch) for 30 minutes at 4° C. After extensive washing in PBS/BSA/NaN₃, cells were fixed in 2% formaldehyde in PBS/BSA/NaN₃ for 30 minutes at 4° C.

[4] = molecular target: T1, membrane-bound full-length human CD89 …; assay: FACS, antibody before secretory IgA on HEK293F-huCD89; IgA detected
Protocol: Then, 10 µL/tube (i.e., 0.1 x 10⁶ cells) of these cells were incubated with or without 50 µL titrated (in PBS/BSA/NaN₃) purified mouse anti-human CD89 antibody/tube for 30 minutes at 4° C. […] After extensive washing in PBS/BSA/NaN₃, 1:200 diluted PE-conjugated streptavidin (Jackson ImmunoResearch) was added, and incubated for 30 minutes at 4° C. After extensive washing in PBS/BSA/NaN₃, cells were fixed in 4% formaldehyde in PBS/BSA/NaN₃ for 30 minutes at 4° C.

[5] = molecular target: T3, membrane human CD89 on ex vivo primary human neutrophilic granulocytes or monocytic U937 cells (human, UniProt P24071 22-287); assay: cell-based or functional assay
[6] = molecular target: T4, recombinant C-terminal polyhistidine-tagged human (extracellular) CD89 (Sino Biological) (human, UniProt P24071 22-227); assay: ELISA on coated rhuCD89
T4 construct: extracellular domain; bought protein; also called rhuCD89; soluble monomeric rhuCD89
Protocol: (§2) After extensive washing with PBS/0.05% Tween 20, plates were blocked with PBS/0.05% Tween 20/1% BSA (Roche) for 1 hour at RT. Subsequently, plates were incubated with 50 µL titrated (in block buffer) purified mouse anti-human CD89 antibody/well for 1 hour at RT. […] After extensive washing in PBS/0.05% Tween 20, binding of antibodies on rhuCD89 was determined with 1:5,000 diluted horseradish peroxidase (HRP)-conjugated goat anti-mouse IgG Fcy-specific antibodies (Jackson ImmunoResearch) for 1 hour at RT, followed by a ready-to-use solution of TMB substrate (Invitrogen) for colorimetric detection.

[7] = molecular target: T3, membrane human CD89 on ex vivo primary …; assay: cell-based or functional assay; remark: listed apart in the source
[8] = molecular target: T1, membrane-bound full-length human CD89 …; assay: FACS, unlabelled antibody before A3-PE on HEK293F-huCD89
[9] = molecular target: T5, chimeric bovine EC1-Fcgamma2R/human EC2-CD89 on HEK293F cells (bovine/human chimera); assay: FACS, transiently transfected HEK293F
T5 chain: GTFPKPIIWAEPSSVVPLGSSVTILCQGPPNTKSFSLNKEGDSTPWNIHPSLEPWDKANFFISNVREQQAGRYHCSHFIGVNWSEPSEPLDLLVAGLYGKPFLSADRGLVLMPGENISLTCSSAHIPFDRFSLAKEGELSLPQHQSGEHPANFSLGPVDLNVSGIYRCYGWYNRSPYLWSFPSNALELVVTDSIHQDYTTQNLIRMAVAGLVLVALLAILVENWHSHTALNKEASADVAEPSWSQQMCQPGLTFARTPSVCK
Protocol: To this end, transient transfected HEK293F cells were put at 10 × 10⁶ cells/mL in ice-chilled phosphate-buffered saline containing 0.1% BSA (Sigma)/0.05% NaN₃ (PBS/BSA/NaN₃) supplemented with 50 µg/mL human IgGs (blocking Fcy receptors; Sigma) for 10 minutes at 4° C. Then, 10 µL/tube (i.e., 0.1 × 10⁶ cells) of these cells were incubated with or without 100 µL purified mouse anti-human CD89 antibody at 10 µg/mL (in PBS/BSA/NaN₃) for 30 minutes at 4° C. […] After extensive washing in PBS/BSA/NaN₃, cells were subsequently incubated with 1:200 diluted PE-conjugated goat anti-mouse IgG Fcy-specific antibodies (Jackson ImmunoResearch) for 30 minutes at 4° C. After extensive washing in PBS/BSA/NaN₃, cells were fixed in 2% formaldehyde in PBS/BSA/NaN₃ for 30 minutes at 4° C.

[10] = molecular target: T6, chimeric human/cynomolgus monkey CD89-hotspots on HEK293F cells (human/cynomolgus chimera, UniProt P24071 22-287); assay: FACS, 10 µg/mL, transiently transfected HEK293F
T6 construct: also called dThr58, Gln59; dArg73, Arg74, Lys76
T6 chain: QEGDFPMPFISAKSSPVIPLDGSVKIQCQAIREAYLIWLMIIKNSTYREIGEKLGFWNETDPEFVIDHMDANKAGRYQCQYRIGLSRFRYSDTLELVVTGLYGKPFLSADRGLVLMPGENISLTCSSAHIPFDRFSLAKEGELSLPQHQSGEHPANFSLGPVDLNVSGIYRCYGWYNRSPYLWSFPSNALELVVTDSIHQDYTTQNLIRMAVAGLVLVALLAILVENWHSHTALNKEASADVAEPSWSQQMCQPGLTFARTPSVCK
Protocol: (§3) To this end, transient transfected HEK293F cells were put at 10 × 10⁶ cells/mL in ice-chilled phosphate-buffered saline containing 0.1% BSA (Sigma)/0.05% NaN₃ (PBS/BSA/NaN₃) supplemented with 50 µg/mL human IgGs (blocking FcY receptors; Sigma) for 10 minutes at 4° C. Then, 10 µL/tube (i.e., 0.1 × 10⁶ cells) of these cells were incubated with or without 100 µL purified mouse anti-human CD89 antibody at 10 µg/mL (in PBS/BSA/NaN₃) for 30 minutes at 4° C. […] After extensive washing in PBS/BSA/NaN₃, cells were subsequently incubated with 1:200 diluted PE-conjugated goat anti-mouse IgG Fcy-specific antibodies (Jackson ImmunoResearch) for 30 minutes at 4° C. After extensive washing in PBS/BSA/NaN₃, cells were fixed in 2% formaldehyde in PBS/BSA/NaN₃ for 30 minutes at 4° C.

[11] = molecular target: T7, chimeric human/cynomolgus monkey CD89-I on HEK293F cells (human/cynomolgus chimera, UniProt P24071 22-287); assay: FACS, 10 µg/mL, transiently transfected HEK293F
T7 construct: also called dGln22 - Lys46 human EC1-CD89; I (22-46)
T7 chain: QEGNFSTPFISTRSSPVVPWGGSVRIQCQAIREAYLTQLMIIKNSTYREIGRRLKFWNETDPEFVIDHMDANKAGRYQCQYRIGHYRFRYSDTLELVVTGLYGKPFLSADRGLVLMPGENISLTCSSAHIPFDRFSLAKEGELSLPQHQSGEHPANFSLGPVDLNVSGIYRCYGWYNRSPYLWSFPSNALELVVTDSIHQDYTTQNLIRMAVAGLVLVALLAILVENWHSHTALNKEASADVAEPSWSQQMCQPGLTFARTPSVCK
Protocol: as §3

[12] = molecular target: T8, chimeric human/cynomolgus monkey CD89-II on HEK293F cells (human/cynomolgus chimera, UniProt P24071 22-287); assay: FACS, 10 µg/mL, transiently transfected HEK293F
T8 construct: also called dIle47 - Ile71 human EC1-CD89; II (47-71)
T8 chain: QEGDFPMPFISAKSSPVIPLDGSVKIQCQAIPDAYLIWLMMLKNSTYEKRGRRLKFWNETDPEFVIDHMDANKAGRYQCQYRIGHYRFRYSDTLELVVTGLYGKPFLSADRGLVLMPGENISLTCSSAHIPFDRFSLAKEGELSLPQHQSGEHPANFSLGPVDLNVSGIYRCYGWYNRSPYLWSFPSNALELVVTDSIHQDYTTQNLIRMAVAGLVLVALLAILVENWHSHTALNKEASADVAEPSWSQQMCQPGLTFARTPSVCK
Protocol: as §3

[13] = molecular target: T9, chimeric human/cynomolgus monkey CD89-III on HEK293F cells (human/cynomolgus chimera, UniProt P24071 22-287); assay: FACS, 10 µg/mL, transiently transfected HEK293F
T9 construct: also called dGly72 - Gly96 human EC1-CD89; III (72-96)
T9 chain: T6 chain with I37T, W38Q, G51D, E59D, D61T, L85H, S86Y
Protocol: as §3

[14] = molecular target: T4, recombinant C-terminal …; assay: ELISA, coated rhuCD89
Protocol: as §2
After extensive washing with PBS/0.05% Tween 20, plates were blocked with PBS/0.05% Tween 20/1% BSA (Roche) for 1 hour at RT. […] After extensive washing in PBS/0.05% Tween 20, binding of antibodies on rhuCD89 was determined with 1:5,000 diluted horseradish peroxidase (HRP)-conjugated goat anti-human IgG Fcy-specific antibodies (Jackson ImmunoResearch) for 1 hour at RT, followed by a ready-to-use solution of TMB substrate (Invitrogen) for colorimetric detection.

[15] = molecular target: T1, membrane-bound full-length human CD89 …; assay: FACS HEK293F-huCD89
Protocol: After extensive washing in PBS/BSA/NaN₃, cells were subsequently incubated with 1:200 diluted PE-conjugated goat anti-human IgG Fcy-specific antibodies (Jackson ImmunoResearch) for 30 minutes at 4° C. After extensive washing in PBS/BSA/NaN₃, cells were fixed in 2% formaldehyde in PBS/BSA/NaN₃ for 30 minutes at 4° C.

[16] = molecular target: T1, membrane-bound full-length human CD89 …; assay: FACS on HEK293F-huCD89
Protocol: Then, 10 µL/tube (i.e., 0.1 x 10⁶ cells) of these cells were incubated with 100 µL titrated (in PBS/BSA/NaN₃) purified mouse anti-human CD89 antibody/tube for 30 minutes at 4° C. […] After extensive washing in PBS/BSA/NaN₃, cells were subsequently incubated with 1:200 diluted PE-conjugated goat anti-mouse IgG Fcy-specific antibodies (Jackson ImmunoResearch) for 30 minutes at 4° C. After extensive washing in PBS/BSA/NaN₃, cells were fixed in 2% formaldehyde in PBS/BSA/NaN₃ for 30 minutes at 4° C.

[17] = molecular target: T8, chimeric human/cynomolgus monkey …; assay: FACS, transiently transfected HEK293F
Protocol: as §3

[18] = molecular target: T10, chimeric human/cynomolgus monkey CD89-IV on HEK293F cells (human/cynomolgus chimera, UniProt P24071 22-287); assay: FACS, 10 µg/mL, transiently transfected HEK293F
T10 construct: also called dArg97 - Gly121 human EC1-CD89
T10 chain: T6 chain with I37T, W38Q, E52R, K53R, G55K, Q78R, Q80R
Protocol: as §3

[19] = molecular target: T4, recombinant C-terminal …; assay: ELISA, antibody before serum IgA on coated rhuCD89; IgA detected
Protocol: After extensive washing with PBS/0.05% Tween 20, plates were blocked with PBS/0.05% Tween 20/1% BSA (Roche) for 1 hour at RT. Subsequently, plates were incubated with 25 µL titrated (in block buffer) purified mouse anti-human CD89 antibody/well for 30 minutes at RT. […] After extensive washing in PBS/0.05% Tween 20, 1:10,000 diluted HRP-conjugated streptavidin (Jackson ImmunoResearch) was added, and incubated for 1 hour at RT, followed by a ready-to-use solution of TMB substrate (Invitrogen) for colorimetric detection.

[20] = molecular target: T1, membrane-bound full-length human CD89 …; assay: FACS, unlabelled antibody before MIP8a-PE on HEK293F-huCD89
[21] = molecular target: T1, membrane-bound full-length human CD89 …; assay: FACS HEK293F-huCD89, 10 ug/mL; competitor PE-A3
Protocol: as §1

[22] = molecular target: T1, membrane-bound full-length human CD89 …; assay: FACS HEK293F-huCD89, 10 ug/mL; competitor PE-A59
Protocol: as §1

[23] = molecular target: T1, membrane-bound full-length human CD89 …; assay: FACS HEK293F-huCD89, supernatant
Protocol: After extensive washing in PBS/BSA/NaN₃, cells were subsequently incubated with 1:200 diluted PE-conjugated goat anti-human IgG Fcγ-specific antibodies (Jackson ImmunoResearch) for 30 minutes at 4° C. After extensive washing in PBS/BSA/NaN₃, cells were fixed in 4% formaldehyde in PBS/BSA/NaN₃ for 30 minutes at 4° C.

[24] = molecular target: T4, recombinant C-terminal …; assay: ELISA, coated rhuCD89, supernatant
Protocol: After extensive washing with PBS/0.05% Tween 20, plates were blocked with PBS/0.05% Tween 20/1% BSA (Roche) for 1 hour at RT. […] After extensive washing in PBS/0.05% Tween 20, binding of antibodies on rhuCD89 was determined with 1:5,000 diluted horseradish peroxidase (HRP)-conjugated goat anti-human IgG Fcγ-specific antibodies (Jackson ImmunoResearch) for 1 hour at RT, followed by a ready-to-use solution of TMB substrate (Invitrogen) for colorimetric detection. After adding 1 M HCL, binding (optical density) of antibodies on rhuCD89 was measured at wavelength of 450 nm (reference wavelength of 655 nm) using a microplate reader (Synergy HTX; BioTek).

B1: CD89/IgA blocking mouse anti-human CD89-specific antibody 26D6 (antibody, V domains shown)
VH: QIQLVQSGPELKKPGETVKISCKASGYTLTKYGMNWVKQAPGKGLKWMGWINTYTGEPTYADDFKGRFAFSLETSASTAYLQINNLKNEDTATYFCASLPLFGRDSFAYWGQGTLVTVSA
VL: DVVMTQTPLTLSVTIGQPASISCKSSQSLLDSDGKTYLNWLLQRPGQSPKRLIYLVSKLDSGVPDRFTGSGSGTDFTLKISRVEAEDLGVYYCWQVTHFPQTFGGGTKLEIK
notes: also called 26B6 [sic]
IC50 (read off the curve) [1]: ~0.2 µg/mL
% blocking of PE-MIP8a binding [2]: > 90%
binding result [3]: no binding (tested: 10 µg/mL)
IC50 (read off the curve) [4]: ~0.3 µg/mL
IC50 (read off the bars), binding of granulocytes to plate-bound serum IgA [Donor 3] [5]: ~1 µg/mL
EC50 (read off the curve) [6]: ~0.008 µg/mL
IC50 (read off the bars), binding of granulocytes to plate-bound serum IgA [Donor 2] [7]: ~0.1 µg/mL
IC50 (read off the curve) [8]: ~0.3 µg/mL
binding result [9]: no binding (tested: 10 µg/mL)
binding result [10]: binds
binding result [11]: binds
binding result [12]: binds
binding result [13]: binds

B2: CD89/IgA blocking mouse anti-human CD89-specific antibody 20B4 (antibody, V domains shown)
VH: QVQLKESGPGLVAPSQSLSITCTVSGFSLTSYGVHWVRQPPGKGLEWLGIIWAGGSTSYNSALMSRLSISKDNSKSQVFLKMNSLQTDDTAMYYCARDHYDLFAYWGQGTLVTVSA
VL: DILMTQSPSSMSVSLGDTVSITCHASQDISRNIGWLQQKPGKSFKGLIYHGTNLEDGVPSRFSGSGSGADYSLTISSLESEDFADYYCVQYAQFPRTFGGGTKLEIK
IC50 (read off the curve) [1]: ~0.3 µg/mL
% blocking of PE-MIP8a binding [2]: < 25%
EC50 [14]: 0.013 µg/mL
binding result [3]: no binding (tested: 10 µg/mL)
IC50 (read off the curve) [4]: ~0.4 µg/mL
EC50 [15]: 0.26 µg/mL
EC50 (read off the curve) [16]: ~0.2 µg/mL
binding result [9]: no binding (tested: 10 µg/mL)
binding result [17]: no binding (tested: 10 µg/mL)
binding result [18]: binds
binding result [10]: binds
binding result [11]: binds
binding result [13]: binds

B3: CD89/IgA blocking mouse anti-human CD89-specific antibody 30C7 (antibody, V domains shown)
VH: QVQLQQSGPELVRPGVSVKISCKGSGYTFTDYVMHWVKQSHAKSLEWIGVISTYSGNTNYNQKFKGKATMTVDKSSSTAYMELARLTSEDSAIYYCARESDGYYFDYWGQGTTLTVSS
VL: DIVMSQSPSSLAVSAGEKVTMSCKSSQSLLNSRTRKNYLAWYQQKPGQSPKLLIYWASTRESGVPDRFTGSGSGTDFTLTISSVQAEDLAVYYCKQSYNLMYTFGGGTKLEIK
IC50 (read off the curve) [1]: ~0.6 µg/mL
% blocking of PE-MIP8a binding [2]: > 90%
EC50 [14]: 0.029 µg/mL
IC50 (read off the curve) [19]: ~0.1 µg/mL
IC50 (read off the curve) [4]: ~1 µg/mL
IC50 (read off the bars), binding of granulocytes to plate-bound serum IgA [Donor 2] [7]: ~0.6 µg/mL
EC50 [15]: 0.484 µg/mL
EC50 (read off the curve) [16]: ~0.4 µg/mL
IC50 (read off the curve) [20]: ~1 µg/mL
binding result [9]: no binding (tested: 10 µg/mL)
% blocking of PE-A3 binding [21]: < 25%
% blocking of PE-A59 binding [22]: < 25%
binding result [17]: no binding (tested: 10 µg/mL)
binding result [18]: binds
binding result [10]: binds
binding result [11]: binds
binding result [13]: binds

B4: humanized IgG4/kappa anti-human CD89 monoclonal antibody 10E7 version VH3VL3 (antibody)
heavy: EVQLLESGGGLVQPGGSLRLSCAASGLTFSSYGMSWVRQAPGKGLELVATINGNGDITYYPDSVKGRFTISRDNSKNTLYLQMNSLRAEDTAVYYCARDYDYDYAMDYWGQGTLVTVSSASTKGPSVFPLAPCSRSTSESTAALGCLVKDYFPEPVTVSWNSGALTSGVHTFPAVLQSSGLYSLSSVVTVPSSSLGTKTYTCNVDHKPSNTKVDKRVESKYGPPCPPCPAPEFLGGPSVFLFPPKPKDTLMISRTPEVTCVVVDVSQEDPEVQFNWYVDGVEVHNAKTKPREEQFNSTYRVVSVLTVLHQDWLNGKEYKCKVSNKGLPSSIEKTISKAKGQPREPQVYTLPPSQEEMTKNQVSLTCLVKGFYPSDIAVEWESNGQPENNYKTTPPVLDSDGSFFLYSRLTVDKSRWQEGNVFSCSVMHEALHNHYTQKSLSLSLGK
light: DIQMTQSPSSLSASVGDRVTITCRASQDIINYLNWYQQKPGKAVKLLIYYTSRLHSGVPSRFSGSGSGTDYTLTISSLQPEDFATYYCQQGKTLPYTFGQGTKLEIKRTVAAPSVFIFPPSDEQLKSGTASVVCLLNNFYPREAKVQWKVDNALQSGNSQESVTEQDSKDSTYSLSSTLTLSKADYEKHKVYACEVTHQGLSSPVTKSFNRGEC
notes: tested as supernatant; signal peptide end derived as for m17
EC50 [23]: ~1 µg/mL
EC50 [24]: ~0.02 µg/mL

B5: humanized IgG4/kappa anti-human CD89 monoclonal antibody 10E7 version VH3VL4 (antibody)
heavy: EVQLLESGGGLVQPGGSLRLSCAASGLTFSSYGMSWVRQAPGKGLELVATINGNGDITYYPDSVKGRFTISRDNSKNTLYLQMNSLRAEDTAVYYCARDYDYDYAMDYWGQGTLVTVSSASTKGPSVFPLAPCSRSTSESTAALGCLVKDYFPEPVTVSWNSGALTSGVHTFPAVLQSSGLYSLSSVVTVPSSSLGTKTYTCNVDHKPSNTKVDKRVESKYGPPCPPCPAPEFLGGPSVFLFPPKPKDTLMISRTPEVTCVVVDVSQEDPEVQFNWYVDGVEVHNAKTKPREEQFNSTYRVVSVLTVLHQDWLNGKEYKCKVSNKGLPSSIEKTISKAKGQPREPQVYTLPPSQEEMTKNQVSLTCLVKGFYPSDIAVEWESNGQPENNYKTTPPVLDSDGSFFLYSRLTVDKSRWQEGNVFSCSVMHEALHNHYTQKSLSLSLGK
light: B4 light with A43T, Y87F
notes: as for B4
EC50 [23]: ~1 µg/mL
EC50 [24]: ~0.02 µg/mL
